Assay [1] has as its target human fibrinogen (human) (UniProt P02671). In words: radiolabelled soluble human fibrinogen bound to whole GBS 6313 cells; the filing later attributes the binding to FbsA.
For assay [2] the target is unchanged. The experiment in a line: FITC-labelled bacteria on fibrinogen-coated Terasaki plates; less than 2% of the fbsA mutant bound.
Assay [3] has the same target. In words: FITC-labelled bacteria on immobilized fibrinogen; less than 2% of the fbsA mutants bound (FIG. 23).
For assay [4] the target is unchanged. The experiment in a line: 125I-fibrinogen bound to whole bacteria; fbsA deletion mutant bound less than 2%.
The target in assay [5] is T1, human fibrinogen (human, UniProt P02671 20-629; P02675 31-491; P02679 27-437).
T1 construct: also called 125I-labelled fibrinogen; immobilized fibrinogen
T1 sequence 1: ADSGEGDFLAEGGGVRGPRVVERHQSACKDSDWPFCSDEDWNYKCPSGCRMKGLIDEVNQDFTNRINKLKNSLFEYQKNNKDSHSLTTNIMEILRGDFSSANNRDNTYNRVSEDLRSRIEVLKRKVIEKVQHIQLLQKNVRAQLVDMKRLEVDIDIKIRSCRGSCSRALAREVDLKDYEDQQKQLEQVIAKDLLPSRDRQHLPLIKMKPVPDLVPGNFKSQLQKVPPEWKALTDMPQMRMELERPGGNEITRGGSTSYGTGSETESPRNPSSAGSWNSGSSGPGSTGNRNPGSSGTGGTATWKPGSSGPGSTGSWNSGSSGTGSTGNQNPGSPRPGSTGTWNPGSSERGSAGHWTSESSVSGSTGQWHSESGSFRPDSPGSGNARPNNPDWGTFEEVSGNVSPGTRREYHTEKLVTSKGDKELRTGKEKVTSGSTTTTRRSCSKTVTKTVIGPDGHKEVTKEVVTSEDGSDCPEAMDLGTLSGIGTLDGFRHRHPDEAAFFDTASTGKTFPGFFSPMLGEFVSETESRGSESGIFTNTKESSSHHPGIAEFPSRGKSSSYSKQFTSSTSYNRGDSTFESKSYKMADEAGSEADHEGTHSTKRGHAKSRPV
T1 sequence 2: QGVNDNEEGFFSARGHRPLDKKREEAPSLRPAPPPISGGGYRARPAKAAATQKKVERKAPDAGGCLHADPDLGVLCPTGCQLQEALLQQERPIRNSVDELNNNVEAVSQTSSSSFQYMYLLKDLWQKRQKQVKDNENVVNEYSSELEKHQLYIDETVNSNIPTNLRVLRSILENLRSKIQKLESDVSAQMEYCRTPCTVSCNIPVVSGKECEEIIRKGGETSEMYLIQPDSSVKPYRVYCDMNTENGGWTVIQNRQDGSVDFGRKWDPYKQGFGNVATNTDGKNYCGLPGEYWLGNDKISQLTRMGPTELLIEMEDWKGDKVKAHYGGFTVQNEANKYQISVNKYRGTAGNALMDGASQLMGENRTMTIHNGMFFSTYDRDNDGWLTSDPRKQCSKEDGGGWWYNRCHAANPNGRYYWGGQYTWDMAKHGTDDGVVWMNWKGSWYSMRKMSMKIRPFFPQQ
T1 sequence 3: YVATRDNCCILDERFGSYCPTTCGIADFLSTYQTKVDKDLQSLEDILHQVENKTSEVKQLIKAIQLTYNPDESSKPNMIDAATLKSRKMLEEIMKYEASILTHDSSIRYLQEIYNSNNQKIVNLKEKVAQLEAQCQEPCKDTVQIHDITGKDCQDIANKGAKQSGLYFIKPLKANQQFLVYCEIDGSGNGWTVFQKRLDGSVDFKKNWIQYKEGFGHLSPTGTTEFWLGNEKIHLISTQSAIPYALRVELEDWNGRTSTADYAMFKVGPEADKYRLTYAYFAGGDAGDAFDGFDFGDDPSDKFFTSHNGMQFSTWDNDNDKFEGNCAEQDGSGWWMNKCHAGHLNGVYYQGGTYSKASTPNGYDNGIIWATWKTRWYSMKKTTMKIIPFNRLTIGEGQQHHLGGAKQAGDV
In words: dot blot / SPOT membrane overlaid with human fibrinogen (FIG. 11).

Assay [6] concerns the target T1, human fibrinogen. In words: refers to the SPOT membrane analysis of FIG. 11.

Take “FbsA protein of GBS strain 6313 (native) (receptor)”: in the assay with human fibrinogen (human) [1], the percent of total radiolabelled fibrinogen bound stood at 50%. The percent of total bacteria bound to immobilized fibrinogen with human fibrinogen (human) [2] and in the assay with human fibrinogen (human) [3] was 45% each time. In the assay with human fibrinogen (human) [4], this molecule returned a percent binding of 125I-labelled soluble fibrinogen of 50%.

In the assay with human fibrinogen (human) [3], “FbsA protein of GBS strain SS1169 (native) (receptor)” came in with a percent of total bacteria bound to immobilized fibrinogen of 7%.

Consider “FbsA protein of GBS strain O90R (native) (receptor)”, for which the percent of total bacteria bound to immobilized fibrinogen with human fibrinogen (human) [2] amounted to 24%; with human fibrinogen (human) [3] it was 18%. This molecule also showed a percent binding of 125I-labelled soluble fibrinogen with human fibrinogen (human) [4] of 12%. As to “FbsA protein of GBS strain 0176 H4A (native) (receptor)”, the percent of total bacteria bound to immobilized fibrinogen with human fibrinogen (human) [3] came to 4%.

For “FbsA protein of GBS strain 706 S2 (native) (receptor)”, the percent of total bacteria bound to immobilized fibrinogen with human fibrinogen (human) [2] was 15%; in the assay with human fibrinogen (human) [3], 14%. This molecule returned a percent binding of 125I-labelled soluble fibrinogen in the assay with human fibrinogen (human) [4] of 8%.

B1: scrambled peptide GLSQNRDVRENQRARE (peptide)
peptide: GLSQNRDVRENQRARE
notes: Same amino acids as the repeat unit in a different order; spotted on cellulose; also called randomised peptide
Turning to B1, the binding result with human fibrinogen [5] was “no binding (tested: 2 µg/ml of human fibrinogen)”. GAVLERRQRDAENRSQ (also called peptide <2>; N2A) [alanine mutant peptide GAVLERRQRDAENRSQ]: the binding result with human fibrinogen [6] is given as “no binding”. On to GNVLERAQRDAENRSQ (also called peptide <5>; R7A) [alanine mutant peptide GNVLERAQRDAENRSQ], for which the binding result in the assay with human fibrinogen [6] is on record as “no binding”. For the molecule GNALERRQRDAENRSQ (also called peptide <3>; V3A) [alanine mutant peptide GNALERRQRDAENRSQ], the binding result in the assay with human fibrinogen [6] is “no binding”.
